Like-named read-outs stand apart in the source and are kept apart here.
Legend:
[1] = target: T1, Cys-HLA used for Octet assays following biotinylation at the N-terminal ectopic cysteine (Staphylococcus aureus, UniProt P09616 27-319)
[2] = target: T1, Cys-HLA used for Octet assays following …; test: BLI (Octet), biotinylated HLA on streptavidin sensors

B1: VHH antibody Ma8A05 (VHH)
VHH: QVQLVESGGGLVQPGGSLRLSCAASPASGFTLDLYTIAWFLQAPGKEREGVSAISLSDEITYYSDAVKGRFTISRDSAKNTVFLQMDRLKPEDTGVYYCAIGAFDFILKEADADYWGQGTQVTVSS
- Kd [1]: 0.6 nM

B2: VHH antibody Ma8D05 (VHH)
VHH: QVQLVESGGGLVQPGGSLRLSCAASPASGFTLDLYTIAWFLQAPGKEREGVSAISLSDEITYYSDTVKGRFTISRDSAKNTVFLQMDRLKPEDTGVYYCAIGAFDFILKEADADYWGQGTQVTVSS
- Kd [1]: 1 nM

B3: VHH antibody Ma7C02 (VHH)
VHH: QVQLVESGGGLVQAGGSLRLSCAASGRTFSDYAMGWFRQAAGKDRDFVAVITRSGDSTYYPDSTKGRFTISRDNAKNTMYLQMNSLKPEDTARYYCAATDPTNYWRIWEHEFDYWGQGTQVTVSS
- Kd [1]: 0.09 nM

B4: VHH antibody Ma7D06 (VHH)
VHH: QVQLVESGGGLVQAGGSLRLSCAASGSISGIDTMAWFRQIPGKDREFVAVIKWAAGSTWYPDFVKGRFTVSRDNAKNMVYLQMDSVKPEDTAIYYCAAAAGEKYYYRLFPYEYDYWGQGTQVTVSS
- Kd [1]: 0.06 nM

B5: VHH antibody Ma8D07 (VHH)
VHH: QVQLVESGGGLVQPGGSLRLSCAASESIYKLNAMGWYRQAPGKELELVTTISSGGSTFYTDPVKGRFTISTDNAKNTVYLQMRSLKPEDTAMYYCAANPTYNHYSARGQGTQVTVSS
- Kd [1]: 0.8 nM

B6: VHH antibody Ma8D08 (VHH)
VHH: QVQLVESGGGFVQAGGSLRLSCAASESIYKLNAMGWYRQAPGKELELVTTISSGGSTFYTDPVKGRFTISTDNAKNTVYLQMRSLKPEDTAMYYCAANPTYNHYSARGQGTQVTVSS
- Kd [1]: 1 nM

B7: VHH antibody Ma7A07 (VHH)
VHH: QVQLVESGGGLVQPGGSLRLSCAASGFTLGDYTLGWFRQAPGKQREGVSSIASSALSIYIADSVKGRFTISRDDAKNTIYLHMNNLKPEDTGVYYCARGVDSWRWVPSAMDLWGKGTLVTVSS
- Kd [1]: ≤ 0.01 nM

B8: VHH antibody Ma7B12 (VHH)
VHH: QVQLVESGGGLVQPGGSLRLSCAASGFTLGDYTLGWFRQAPGKQREGVSSIASSALSIYIADSVKGRFTISRDNAKNTVYLHMNNLKPEDTGVYYCARGIDNWRWVPSAMDLWGKGTQVTVSS
- Kd [1]: ≤ 0.01 nM

B9: VHH antibody Ma7B03 (VHH)
VHH: QVQLVESGGGLVQPGGSLRLSCAASGFTLSNYYVGWFRQAPGKQREGVSSIGSSDLSIYIADSVKGRFTISRDNAKNTIYLHMNNLKPDDTGVYYCARGTDSWRWVPSAMDLWGKGTQVTVSS
- Kd [1]: ≤ 0.01 nM

B10: VHH antibody Ma7A08 (VHH)
VHH: QVQLVESGGGLVQPGGSLTLSCAASGFTLGDYTLGWFRQAPGKQREGVSSIASSVLSVYIADSVKGRFTISRDDAKNTIYLHMNNLKPEDTGVYYCARGVDSWRWVPSAMDLWGKGTLVTVSS
- Kd [1]: ≤ 0.01 nM

B11: VHH antibody Ma8H03 (VHH)
VHH: QVQLVESGGGLVHPGGSLRLSCAASGSSLDHYVIGWFRQVPGKQREGISCISSGGSTNYADSVKGRFTVSRDNVKSTVYLQMNSLAPDDSAEYYCAAQRNLGNFCVLGWLEYDDWGQGTQVTVSS
- Kd [1]: ≤ 0.01 nM

B12: VHH antibody Ma7C11 (VHH)
VHH: QVQLVESGGGLVRAGGSLRLSCAASGSISSVNGMGWFRQAPGKERLFVAQVSLLDSSTYYADSVKGRFTISRDDAKNTMYLQMNNVRPEETAVYYCAATKLRIGTAFSSEYDYWGQGTQVTVSS
- Kd [1]: 0.3 nM

B13: VHH antibody Ma7F02 (VHH)
VHH: QVQLVESGGGLVQAGGSLRLSCTVSGSIDSLHTMGWFRQAPGKKRDFVAVVSWSGGNTYYPDYAKGRFTISRDNTKNTVYLQMNSLKPEDTAIYYCAAESGSGNYWKIWEHEFDSWGQGTQVTVSS
- Kd [1]: 0.04 nM
- Kd [2]: ~0.05 nM

B14: VHH antibody Ma7B01 (VHH)
VHH: QVQLVESGGGLVQAGDSLSLSCAASGRTFSNYAMGWFRQAPGKERHFVAVINQIGDSTWYPDFAKGRFTISRDNAKNTLYLQMNSLKPEDTAVYYCAATDPRSYWRIWPHEYGYWGQGTQVTVSS
- Kd [1]: 0.05 nM

B15: VHH antibody Ma7E01 (VHH)
VHH: QVQLVESGGGSVQAGDSLSLSCVASERTFSNYAMGWFRQAPGKERHFVAVINPIGEETWYPDFAKGRFTISRDNAKNTLYLQMNSLKPEDTAVYYCAATDPRSYWRIWEHEFDYWGQGTQVTVSS
- Kd [1]: ≤ 0.01 nM

B16: VHH antibody Ma8E03 (VHH)
VHH: QVQLVESGGGLVHPGGSLRLSCAASGSSLDHYVIGWFRQVPGKEREGVSCISRSGGSTNYADSVKGRFTVSRDNVKNMVYLQMNSLEPEDSAEYYCAAQRNLGNFCVLGWLEYDDWGQGTQVTVSS
- Kd [1]: ≤ 0.01 nM

B17: VHH antibody Ma8G02 (VHH)
VHH: QVQLVESGGGLVLPGGSLRLSCAASGSSLDHYVIGWFRQYPGKEREGVSCISRSGGSTNYADSVKGRFTVSRDNVKNMVYLQMNSLEPEDSAEYYCAAQRNLGNFCVLGWVEYDDWGQGTQVTVSS
- Kd [1]: ≤ 0.01 nM

From patent EP4410371A1 (Max-Planck-Gesellschaft zur Förderung der Wissenschaften …, dated 2024)
